Values quoted from earlier work, collected in patent publication US8232251B2, “Compounds for delivery of therapeutic and imaging moieties to nerve cells” (Manzanita Pharmaceuticals, Inc., priority 1998, dated 2012).

Molecular target: T1, p75 (Homo sapiens, UniProt P08138)
T1 sequence (P08138 29-427): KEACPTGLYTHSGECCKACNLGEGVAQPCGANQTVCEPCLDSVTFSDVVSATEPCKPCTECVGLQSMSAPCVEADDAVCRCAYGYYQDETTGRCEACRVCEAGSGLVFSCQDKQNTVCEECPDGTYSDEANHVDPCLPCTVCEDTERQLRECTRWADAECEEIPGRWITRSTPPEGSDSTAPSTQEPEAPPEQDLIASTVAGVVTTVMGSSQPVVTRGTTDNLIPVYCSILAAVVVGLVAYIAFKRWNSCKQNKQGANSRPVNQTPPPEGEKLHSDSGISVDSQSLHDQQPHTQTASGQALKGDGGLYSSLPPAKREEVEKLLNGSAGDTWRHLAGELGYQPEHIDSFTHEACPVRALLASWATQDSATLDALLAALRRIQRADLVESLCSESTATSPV
Details: lower affinity binding to more abundant p75

In the case of “NGF: nerve growth factor, first identified member of the neurotrophin family; used as binding agent B”, the Kd is listed as 1 nM.
